Measurements published in the supplement of paper PMC9170038.

Test system: K4 kissing-loop RNA reporter
Assay: apparent KD of K4 kissing-loop reporter; higher = weaker reporter binding
Conditions: Eterna round: R107
Method: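 RNA-MaP round R107: designed RNA switches with theophylline, tryptophan, arginine or FMN aptamers are transcribed on-chip within common flanks. They are titrated with a labelled K4 kissing-loop RNA reporter in RNA-MaP buffer (100 mM Tris pH 7.5, 80 mM KCl, 4 mM MgCl2), without ligand or with the indicated ligand. Median apparent KD per design.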

[1] = input ligand: theophylline 20 uM
[2] = input ligand: tryptophan 2.4 mM
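Note: bound reporter read as fluorescence of individual clusters on recovered sequencing chips by microscopy, with normalized cluster intensities fitted with a binding model.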

Sequence	apparent KD of K4 kissing-loop reporter (input ligand: FMN 200 uM) [µM]	apparent KD of K4 kissing-loop reporter (input ligand: arginine 13.2 mM) [µM]	apparent KD of K4 kissing-loop reporter (input ligand: none) [µM]	apparent KD of K4 kissing-loop reporter [1] [µM]	apparent KD of K4 kissing-loop reporter [2] [µM]
AAUUCUUAUCUUAGUUGAUUUCUAAUUAAACGAGGACCGGUACGGCCGCCACUCGGUUAUGAGUGAUGUUCAUGGAAUUACAUAA [JR_SSTryptoA_Sub019]	0.407	0.601	0.515	0.791	0.169
AAUUUAGUGACGGCCGCCACUAGGGUGAUUUAUUUGUUUGAGUGAUGUUUUGAUGUUUGAUUUUGUAGGACCGGGUUAGGUGAUG [dddcmullin]	0.354	0.304	0.363	0.326	0.271
AAUUUAUUAUCUGAUACCAGACUUUAUCUUGUUUAUAAGUCAAGUGAUGUUUGACUAUUAGUCCCUUGGCAGCAGUAUUUUUUAA [JR_Nu_SSTheophyB_Sub025]	0.251	0.26	0.269	0.187	0.23
AAUUUAUUAUCUGAUACCAGACUUUUUCUUGUAUAUAAGUCAAGUGAUGUUUGACUUUUAGUCCCUUGGCAGCAGUAUUUUUUAA [JR_Nu_SSTheophyB_Sub027]	0.165	0.149	0.168	0.123	0.155
ACACUAUCGUCAUAGACGGUAGUGAAAUCACAGGAUAUAAGUGAUGUUAGAAGGGUGAAAGACUGUAUCGAAUAGAUACAGUCAA [FmnA 3 #K4BetweenAptamer #OpenEnded]	1.14	0.605	0.913	0.861	0.878
ACAGGAUCGAAGAUCCUGAGCAGUCAAAACCGAGGACCGGUACGGCCGCCACUCGGAGUGAUGUUCCGAAGACUGCAAAAUAAAA [#SwitchBubble 3]	1.09	0.76	1.01	1.01	0.692
ACAGUUGCUAGUGAUACCAGACUAGCACUACGUAGUAUGUCAAGUGAUGUUUGACAACUAGUCCCUUGGCAGCGCGAUACGACUG [#12 K4 Theophylline B Same State]	0.181	0.152	0.17	0.136	0.169
ACAUAGGAUGGAAGGAGCGCUCGUCAGUCCUGCGAGUGAUGUUCGUGGGUAAAUAUUCGCGAGCAGGUAGGUCGCCAUCUUGAAA [Vedi]	0.109	0.115	0.158	0.177	0.164
ACCAAUUUACCGGCAGUAGUGAUGUUACUCCGAGGACCGGUACGGCCGCCACUCGCGAACGUAGGGUUUCUGACUCGAAGAGUCU	0.191	0.127	0.171	0.149	0.171
ACCACCUGUCUGGAUACCAGUCUUCGAGUGAUGUUGGAAGUUAGCCGGUUCUAUUACCUAGACCCUUGGCAGCCAGGAAUUAUAG [theeternabot_exclusion_KL_Theo_B_17]	1.14	0.861	1.5	1.13	0.872
ACCGCAUUGGGCUGAUCCCAAUGCGCUGGUCGAGGACCGGUACGGCCGCCACUCGUCCAGUGAUGUUGGACUAGGGCAACUGAAG [Veraceer]	0.39	0.244	0.249	0.449	0.0833
ACCUACCAUUAGUGAUGUUAAUGGACGGAAGGAGCGCAGAUAUCUGCAGGUAGGUCGCCGAAGGCUAGACAUUGUCUAGCCAUUA [AK1.1 SS Arginine A]	0.227	0.178	0.197	0.163	0.183
ACCUACGAUCACAAAAGUGAUUGUAGGAUCUAGGAUAUGCUGAAAAGCAGAAGGAGAGUGAUGUUCUCAACUCACGAAAGUGAGA [FmnAX 1 #OpenEnded #K4Late]	0.354	0.184	0.183	0.182	0.173
ACGAUUUACAGAAGGAGCGUGUAUUUAACUACAAUUAUCAUAGCGAGUGAUGUUCGUUAUACACAGGUAGGUCGCUGUAUAUCGA [JR_ExcArginiB_Sub012]	0.364	0.367	0.356	0.451	0.397
ACGCAUGGGCAAGGAUAUGGUAGUGAUGUUACCUUUGCGGUGCCGGGAACGAAUGACGGUCAUGCGCCAGAAGGUGCUCAGACAA [theeternabot_exclusion_KL_FMN_B_23]	0.203	0.18	0.178	0.25	0.183
ACGGUUUCCACGGCCGCCACUUGCGCAUUAGAUCUUACCCUAGGAGUGAUGUUCCAUACAAGUACAAGGACCGGGUGGGACAUAA [theeternabot_sameState_KL_Trp_B_28]	0.257	0.369	0.375	0.342	0.239

Sequence	apparent KD of K4 kissing-loop reporter (input ligand: FMN 200 uM) [µM]	apparent KD of K4 kissing-loop reporter (input ligand: arginine 13.2 mM) [µM]	apparent KD of K4 kissing-loop reporter (input ligand: none) [µM]	apparent KD of K4 kissing-loop reporter [1] [µM]	apparent KD of K4 kissing-loop reporter [2] [µM]
ACGUAGUUCUAGGAUACCAGCCAAGGUGCCAGGACAAAAGUCCUGGCAGCCAGUGAUGUUGGCCCUUGGCAGCCUAGAACUACGA [Omei KL Theo B Exc B v7]	0.164	0.145	0.154	0.122	0.137
ACUGAGCAUGCGGCCGCCACUUCAGAACGUCGCCCAAAGGGCGACGCCUCCAGAGUGAUGUUCUGGAGGACCGGGCAUGUUCAGA [Omei KL Tryp B Exc A v1]	0.54	0.3	0.506	0.45	0.112
ACUGAGUUGACGAAAGUCAACAAUUGAGAAGGAGCGCACGAAAGUGCAGGUAGGUCGCUCAGUCCAGUGAUGUUGGAUCAUCAGA [#17 K4 Arginine A Same State]	0.324	0.558	0.383	0.478	0.275
AGAAGAGUGAUGUUCUUCUAUAUCUCAGAAGGAGCGACAUAAAUGUCAGGUAGGUCGCUGAGAUGAAAUCUCACACAGAUCUUGG [Arg A SS t8]	0.127	0.149	0.154	0.182	0.109
AGACGAGAUGAAGGAUAUGCGGACAAAGUGAUGUUUUGUCCGAAAGUAGGCAGUAAUAUCGAAAAUGCAGAAGGUCAAGAACAUA [theeternabot_exclusion_KL_FMN_B_36]	0.135	0.173	0.143	0.256	0.145
AGACUACCAACACUGUCAAUAGACAGUGACUAGGAUAUGCUGAUAAGCAGAAGGAGUGAUGUUCCUAAUAGAAAGGUAGUCAAAU [FmnAX 17 #SwitchBubble #StaticStem #K4Early]	0.294	0.237	0.252	0.223	0.219
AGACUACCACACUGUCAAUAGACAGUGAACUAGGAUAUGCUGAUAAGCAGAAGGAGUGAUGUUCCCAGGUAGUCAAUAAAAUAAU [FmnAX 13 C66]	0.17	0.185	0.231	0.331	0.223
AGACUACCACACUGUCAAUAGACAGUGAACUAGGAUAUGCUGAUAAGCAGAAGGAGUGAUGUUCCUAAAGGUAGUCAAAUAUAAU [FmnAX 14 #SwitchBubble #StaticStem #K4Early]	0.335	0.38	0.38	0.567	0.351
AGACUACCACACUGUCAAUAGACAGUGAGCUAGGAUAUGCUGAUAAGCAGAAGGAGUGAUGUUCCCAGGUAGUCAAUAAAAUAAU [FmnAX 13 G29+C66]	0.272	0.192	0.231	0.302	0.238
AGACUACCACACUGUCAAUAGACAGUGAGCUAGGAUAUGCUGAUAAGCAGAAGGAGUGAUGUUCCUGGGUAGUCAAUAAAAUAAU [FmnAX 13 G29+G67]	0.399	0.349	0.362	0.441	0.342
AGACUAUCGUCAAAGACGGUAGUCAAAAGUGAGGAUAUAGUGAUGUUUAGAAGGCACUAAGACUGUAUCGAAUAGAUACGGUCAA [FmnA 1 #K4BetweenAptamer #OpenEnded]	2.12	1.32	2.12	1.25	1.92
AGACUUCACCGAAGGAGCGACGUAGCCUAGUGAUGUUAGGCAAGAGAGAAAUCUCUUAUACGUCAGGUAGGUCGCGGUGAAGUCA [Omei KL Arginine B SS C v2]	0.197	0.118	0.162	0.16	0.15
AGACUUCACCGAAGGAGCGACGUGGCCUAGUGAUGUUAGGCACGAGAGAAAUCUCGUAUACGUCAGGUAGGUCGCGGUGAAGUCA [Omei KL Arginine B SS C v6]	0.204	0.142	0.165	0.16	0.18
AGACUUCACCGAAGGAGCGACGUGGUCUAGUGAUGUUAGACACGAGAGAAAUCUCGUAUACGUCAGGUAGGUCGCGGUGAAGUCA [Omei KL Arginine B SS C v9]	0.147	0.119	0.146	0.117	0.133
AGAGAUAAGGCGGCCGCCACUAAGAUGAAACUAACGGUCAAGUGAUGUUUGCGGUUACAGUUCAGUAGGACCGGGCCGAGUAAAU [theeternabot_sameState_KL_Trp_B_47]	0.512	0.403	0.407	0.412	0.357
